Assay [1] has as its target Human amyloid beta (Aβ) 42 peptide (human) (UniProt P05067).
Assay [2] has the same target. The source holds these as a separate data set.

SAMP8 type Serpina3n, sequence (Q91WP6 21-418): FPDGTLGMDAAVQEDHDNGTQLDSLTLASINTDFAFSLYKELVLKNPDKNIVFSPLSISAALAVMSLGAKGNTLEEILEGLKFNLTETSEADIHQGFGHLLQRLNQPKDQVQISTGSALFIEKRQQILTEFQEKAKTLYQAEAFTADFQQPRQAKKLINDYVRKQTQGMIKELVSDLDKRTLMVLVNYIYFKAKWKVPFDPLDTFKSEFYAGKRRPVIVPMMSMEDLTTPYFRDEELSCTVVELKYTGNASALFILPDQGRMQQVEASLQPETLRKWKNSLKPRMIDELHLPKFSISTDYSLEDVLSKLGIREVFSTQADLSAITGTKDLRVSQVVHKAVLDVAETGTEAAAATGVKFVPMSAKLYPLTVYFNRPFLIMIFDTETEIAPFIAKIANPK

Take “SAMP8 type Serpina3n (from UniProt Q91WP6 21-418) (natural protein)”: in assay [1], the prevalence of oligomer rich observation fields of Aβ 42 under TEM, 0 to 72 hr of preincubation (delayed fibrillization) was determined as 72 h. In addition, in assay [2], the thioflavin T fluorescence assay of Aβ 42 fibrillization (time for which oligomeric or small protofibrillar forms were kept before the plateau) stood at 13 h.

The values are drawn from publication PMC7932536.
